Results published in publication PMC12749359, “Chromosome compartment assembly is essential for subtelomeric gene silencing in trypanosomes” (Nature Communications, 2025).

Assays:
[1] = target: T1, repressor-activator protein 1, His-tagged recombinant (T. brucei, UniProt Q387L4 1-855); assay: SPR
T1 chain: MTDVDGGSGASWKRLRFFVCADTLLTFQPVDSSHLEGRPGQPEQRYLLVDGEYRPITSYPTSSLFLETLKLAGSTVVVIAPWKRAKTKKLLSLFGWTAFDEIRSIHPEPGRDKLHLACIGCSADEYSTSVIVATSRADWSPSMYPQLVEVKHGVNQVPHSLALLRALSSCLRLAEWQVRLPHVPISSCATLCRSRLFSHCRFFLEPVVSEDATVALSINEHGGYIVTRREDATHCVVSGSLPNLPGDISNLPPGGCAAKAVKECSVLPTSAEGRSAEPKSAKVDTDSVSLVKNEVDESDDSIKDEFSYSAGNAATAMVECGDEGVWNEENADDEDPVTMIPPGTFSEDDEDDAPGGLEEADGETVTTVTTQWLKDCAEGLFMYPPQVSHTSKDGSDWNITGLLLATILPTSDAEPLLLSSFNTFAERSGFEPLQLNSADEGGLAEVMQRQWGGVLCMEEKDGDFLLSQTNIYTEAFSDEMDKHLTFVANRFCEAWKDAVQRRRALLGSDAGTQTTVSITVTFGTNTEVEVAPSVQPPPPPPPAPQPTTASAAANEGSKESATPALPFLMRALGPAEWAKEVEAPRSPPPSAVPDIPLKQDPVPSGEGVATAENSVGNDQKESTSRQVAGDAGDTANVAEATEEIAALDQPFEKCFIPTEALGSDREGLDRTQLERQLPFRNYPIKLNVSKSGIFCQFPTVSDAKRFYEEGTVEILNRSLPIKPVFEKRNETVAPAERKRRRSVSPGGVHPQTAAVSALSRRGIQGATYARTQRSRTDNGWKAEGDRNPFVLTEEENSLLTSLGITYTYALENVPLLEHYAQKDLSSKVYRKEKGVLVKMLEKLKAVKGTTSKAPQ

[2] = target: T1, repressor-activator protein 1, …; assay: SPR
[3] = target: T2, repressor-activator protein 1, His-tagged recombinant (T. brucei, UniProt Q387L4 1-855); assay: SPR; RAP1-His immobilised on NTA sensor (Nicoya OpenSPR-XT), blocked with 0.5% BSA; PIP5Pase-V5 added at 0.0008, 0.004, 0.008, 0.016 nM; 20 mM HEPES, 150 mM NaCl, 10 mM KCl, 10 mM MgCl2, 10 mM CaCl2, 0.2% NP-40; three replicates; conditions: both partners purified
T2 construct: RAP1 of Trypanosoma brucei, recombinant; also called RAP1-His; his-tagged RAP1; source: recombinantly produced in E. coli
T2 sequence (looked up): T1 chain

B1: phosphatidylinositol phosphate 5-phosphatase, V5-tagged (enzyme, T. brucei, UniProt Q385E2 1-564, looked up)
chain: MRSLLEGITSTLRSAQQHQTGWDPRNATSTGVPTTAQEAFSGGVPAVAQRDLSHVEGPVSSKGGAPMDCITGYSRFSTHSPPDFPFRMLMITQNVGAIGDTAAGAKEGGEEHRRECEKQAGNDELSSDAQKDVREFLSELRLLIFEYSRREYTAHIRVSNTGDDDPSHPSAADIGGQGPPPLIDVIVVHFQEIGGKSFHTEFNNYFANALQELLPEAGWTSGLLMRANDDEDQFTAVGSVVYLSHRMCPISSILSFHHRTFVCVGDDPVTYGSSPTILFHGGKFSGAGESRKGYLLISLRLGTVVVNFLNVHLYNDKKSKEAAAASPSPYALQRQEALLETLAECAAFISPDDPLFIFGDFNTRLDVHNMLQYLKEVENLDVKVSDGDVRAPDSFWELFENPQHMGVIRPYDVEVQRLLDVVAQQSGMELAEFAVRFPPTYLCQSPRDSEEATFQIDTPVHLVNDGEDKRESGTSDRISVVRVLERLSSIPHHPYGRRRVPAWCDRVLWNPPALELMTGRRTSQSVAGSSATAHGGTGVGALRRYVYRSVALRHTDHAAVTLFF
notes: PIP5Pase of Trypanosoma brucei, endogenous allele tagged at the C-terminus (pMOTag3V5) in Lister 427 single-marker cells; also called PIP5Pase; PIP5Pase-V5; source: T. brucei bloodstream forms, endogenously tagged allele, in lysate of DSS cross-linked cells (XLMS, IP); isolated from T. brucei (SPR); not shown: 3xV5 (42 amino acids), C-terminal, kept
- koff [1]: 0.41 s⁻¹
- Kd [2]: 270 nM
- Kd [3]: 2.7 nM
